24 substances from the Human Domainome abundance scans (Beltran et al. 2025) can be followed below.

± gives the uncertainty stated by the source.

This series in a line: abundance fitness (aPCA) (normalised: wild type 0, dead -1); higher = more abundant; growth selection in yeast, the domain comes from the species named. The settings on record: Homo sapiens.
The substance “Transcription factor SOX-11 I99V, P35716” had an abundance fitness of -0.094 ± 0.05.

With “Transcription factor SOX-11 I99Y, P35716”, the abundance fitness is -0.01 ± 0.053.

Substance “Transcription factor SOX-11 K50R, P35716” registered an abundance fitness of -0.396 ± 0.13.

On to “Transcription factor SOX-11 K85Q, P35716”, for which the abundance fitness came to 0.228 ± 0.13.

For “Transcription factor SOX-11 K85S, P35716”, the abundance fitness came out at 0.026 ± 0.05.

Regarding “Transcription factor SOX-11 K91S, P35716”, the abundance fitness was determined as 0.081 ± 0.044.

On to “Transcription factor SOX-11 K91T, P35716”, for which the abundance fitness turned out to be 0.151 ± 0.056.

“Transcription factor SOX-11 K108Q, P35716” registered an abundance fitness of -0.031 ± 0.13.

“Transcription factor SOX-11 L90M, P35716” registered an abundance fitness of 0.343 ± 0.13.

The substance “Transcription factor SOX-11 L107K, P35716” displayed an abundance fitness of -0.218 ± 0.14.

“Transcription factor SOX-11 M68A, P35716” had an abundance fitness of -0.247 ± 0.066.

“Transcription factor SOX-11 M68L, P35716” yielded an abundance fitness of 0.093 ± 0.059.

With “Transcription factor SOX-11 M74L, P35716”, the abundance fitness is -0.084 ± 0.056.

In the case of “Transcription factor SOX-11 M89A, P35716”, the abundance fitness is 0.098 ± 0.071.

In the case of “Transcription factor SOX-11 M110L, P35716”, the abundance fitness was -0.068 ± 0.053.

For the substance “Transcription factor SOX-11 Q70A, P35716”, the abundance fitness is -0.128 ± 0.065.

“Transcription factor SOX-11 R65K, P35716”: the abundance fitness was -0.364 ± 0.34.

With “Transcription factor SOX-11 R82I, P35716”, the abundance fitness came to 0.406 ± 0.048.

Take “Transcription factor SOX-11 R82M, P35716”: the abundance fitness was 0.124 ± 0.12.

As for “Transcription factor SOX-11 R86S, P35716”, the abundance fitness was -0.07 ± 0.046.

On to “Transcription factor SOX-11 R100E, P35716”, for which the abundance fitness worked out at 0.218 ± 0.12.

As for “Transcription factor SOX-11 S60A, P35716”, the abundance fitness came out at 0.15 ± 0.097.

“Transcription factor SOX-11 S71C, P35716” displayed an abundance fitness of -0.055 ± 0.052.

“Transcription factor SOX-11 S93L, P35716” returned an abundance fitness of -0.568 ± 0.099.
